The subject of one data set is lymphocyte. As to conditions: can be blocked by exogenous guanosine; cited from earlier work.
The subject of a further data set is IMP dehydrogenase. The following applies: cited from earlier work.
Data set [1] deals with transplant rejection and rheumatoid arthritis. The following applies: recent clinical trials; cited from earlier work.
For data set [2], the system named is GMP synthetase from Ehrlich ascites cells. The following applies: cited from earlier work.
The nature of data set [3]: Spectrophotometric-coupled assay of Spector (rate of AMP production; specific activity of enzyme preparations). The class given is biochemical. From the text: The medium will usually be a salt medium such as normal saline, phosphate buffer, or phosphate buffered saline containing additives well known to those skilled in the art and commercially available from a number of suppliers such as GIBCO and Hyclone. The cultured cells are then homogenized under conventional conditions such as, for example, sonication, freeze-thawing, and hypotonic lysis, and the cytosolic fraction is obtained by centrifugation and recovery of the supernatant. Differential salt fractionation, using, for example, ammonium sulfate, is employed to separate the GMP synthetase-richprotein fraction. Salt is then removed by one of a variety of known methods such as gel filtration, dialysis and the like. The desalted protein fraction is then subjected to anion exchange chromatography. […] Fractions showing GMP-synthetase activity are further subjected to hydrophobic interaction chromatography and a second purification via anion exchange chromatography. […] The assay measures the rate of production of AMP by GMP synthetase by coupling it to the oxidation of NADH via the auxiliary enzymes AMP kinase, pyruvate kinase and lactate dehydrogenase.
This assay measured the rate of AMP production by GMP synthetase, and the level of AMP is measured through the activity of three auxiliary enzymes. […] This rate is referred to as background rate.

For data set [4] the following is noted: partially purified, approximately 50-fold, human fibroblast cells; cited from earlier work.
Where [5] appears, read: purified enzyme, repeated purifications or single preparation.

Where two headings read alike, the source gives them in different places.

With `COc1c(C)c2c(c(O)c1C/C=C(\C)CCC(=O)O)C(=O)OC2` [mycophenolic acid], the “inhibition of lymphocyte proliferation, correlated with lowering of the intracellular pool of guanine nucleotides” value with lymphocyte is reported as “inhibition of lymphocyte proliferation”. The “inhibitor of IMP dehydrogenase” value in the data set on IMP dehydrogenase is recorded as “potent inhibitor”. In addition, the “effective in treatment of transplant rejection and rheumatoid arthritis” value in data set [1] was “effective”. Take `O=P(O)(O)OP(=O)(O)O` [pyrophosphate]: the “inhibition of the enzyme by its reaction product” value in data set [2] is given as “inhibition”. In the case of “human GMP synthetase: purified human GMP synthetase from A3.01 cells, single Coomassie blue-staining band at 75 kDa”, the specific activity in data set [3] (Mono Q pool, purified from A3.01 cells) is recorded as 3.0 μmol AMP/min-mg; in data set [3] (setting [5]), 2.5-4.0 μmol AMP produced/min/mg. On to “partially purified preparation from human fibroblast cells: GMP synthetase from human fibroblasts, purified approximately 50-fold by ammonium sulfate fractionation and gel filtration”, for which the specific activity in data set [4] is on record as 5990 pmoles guanine compound produced/min/mg. “recombinant human GMP synthetase: baculoviral expressed human GMP synthetase purified from Sf-9 cells”: the specific activity in data set [3] (setting [5]) is given as 3.0-4.4 μmol AMP produced/min/mg; in data set [3] (purified enzyme, repeated purifications or single preparation, listed as purified protein), 4.4 μmol AMP produced/min/mg.

The values are drawn from patent US5789216A, “Cloning and expression of human GMP synthetase, its use in screening for inhibitors of human GMP synthetase and inhibitors of human GMP synthetase” (Syntex (U.S.A.) Inc., priority 1995, dated 1998).
